# Experimental data: the supplement of paper PMC9112550, “Optimization of the antimicrobial peptide Bac7 by deep mutational scanning” (BMC Biology, 2022)
# Test system: Escherichia coli TOP10
# Experiment: shrunken log2 fold change of peptide-encoding DNA abundance (4.5 h post-induction vs induction); higher = less antimicrobial activity (less host growth inhibition)
# Conditions: time post-induction: 4.5 h; library: site-saturation at positions 5, 18, 19, 20
# 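Further: peptides expressed intracellularly from a pBAD plasmid library in pooled LB shake-flask culture, induced with 0.3% L-arabinose, DNA abundance read by NGS, three biological replicates, DESeq2 with apeglm shrinkage.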
row,Sequence,shrunken log2 fold change
1,RRIRTRPPRLPRPRPRPHMTPRP,-0.265
2,RRIRERPPRLPRPRPRPAPCPRP,0.0086
3,RRIRRRPPRLPRPRPRPVPYPRP,-0.195
4,RRIRDRPPRLPRPRPRPIPCPRP,-0.0802
5,RRIRMRPPRLPRPRPRPYWKPRP,0.0275
6,RRIRARPPRLPRPRPRPDFKPRP,0.00723
7,RRIRERPPRLPRPRPRPIPQPRP,0.13
8,RRIRMRPPRLPRPRPRPHSGPRP,0.00795
9,RRIRQRPPRLPRPRPRPVANPRP,0.124
10,RRIRERPPRLPRPRPRPSVTPRP,-0.4
11,RRIRPRPPRLPRPRPRPWLMPRP,-0.118
12,RRIRGRPPRLPRPRPRPREEPRP,1.57
13,RRIRNRPPRLPRPRPRPCKCPRP,0.00489
14,RRIRFRPPRLPRPRPRPMLCPRP,-0.103
15,RRIRQRPPRLPRPRPRPDSLPRP,-0.0756
16,RRIRKRPPRLPRPRPRPFCGPRP,0.345
17,RRIRGRPPRLPRPRPRPKSAPRP,0.781
18,RRIRIRPPRLPRPRPRPNMNPRP,-0.773
19,RRIRFRPPRLPRPRPRPPRHPRP,0.411
20,RRIRQRPPRLPRPRPRPFIDPRP,-0.0223
21,RRIRKRPPRLPRPRPRPRQNPRP,0.586
22,RRIRMRPPRLPRPRPRPLLMPRP,0.205
23,RRIRARPPRLPRPRPRPWPDPRP,0.17
24,RRIRSRPPRLPRPRPRPTICPRP,-0.126
25,RRIRPRPPRLPRPRPRPGIAPRP,0.218

row,Sequence,shrunken log2 fold change
1,RRIRGRPPRLPRPRPRPQNQPRP,0.0596
2,RRIRARPPRLPRPRPRPYPEPRP,-0.181
3,RRIRPRPPRLPRPRPRPQAAPRP,0.116
4,RRIRTRPPRLPRPRPRPTYCPRP,-0.379
5,RRIRWRPPRLPRPRPRPEMCPRP,-0.0695
6,RRIRRRPPRLPRPRPRPWLRPRP,-0.103
7,RRIRGRPPRLPRPRPRPAAPPRP,1.38
8,RRIRIRPPRLPRPRPRPHNTPRP,-0.961
9,RRIRPRPPRLPRPRPRPCRTPRP,-0.194
10,RRIRQRPPRLPRPRPRPKCHPRP,-0.0268
11,RRIRPRPPRLPRPRPRPNVVPRP,-0.0229
12,RRIRGRPPRLPRPRPRPHDYPRP,0.0282
13,RRIRERPPRLPRPRPRPPCTPRP,0.0136
14,RRIRARPPRLPRPRPRPMTPPRP,0.913
15,RRIRLRPPRLPRPRPRPQCWPRP,-0.0159
16,RRIRQRPPRLPRPRPRPSQAPRP,0.103
17,RRIRWRPPRLPRPRPRPFSAPRP,-0.133
18,RRIRCRPPRLPRPRPRPNDTPRP,-0.461
19,RRIRWRPPRLPRPRPRPNKGPRP,-0.346
20,RRIRPRPPRLPRPRPRPHVNPRP,-0.38
21,RRIRYRPPRLPRPRPRPPEPPRP,0.35
22,RRIRVRPPRLPRPRPRPKPWPRP,0.376
23,RRIRHRPPRLPRPRPRPQPSPRP,0.111
24,RRIRPRPPRLPRPRPRPSPKPRP,0.218
25,RRIRFRPPRLPRPRPRPLHYPRP,-0.299

row,Sequence,shrunken log2 fold change
1,RRIRTRPPRLPRPRPRPMCNPRP,-0.249
2,RRIRTRPPRLPRPRPRPVTDPRP,0.0266
3,RRIRYRPPRLPRPRPRPLAIPRP,-0.778
4,RRIRSRPPRLPRPRPRPQECPRP,-0.0587
5,RRIRWRPPRLPRPRPRPVWYPRP,-0.18
6,RRIRWRPPRLPRPRPRPHFMPRP,-0.398
7,RRIRIRPPRLPRPRPRPGACPRP,-0.243
8,RRIRNRPPRLPRPRPRPHDIPRP,-0.0337
9,RRIRQRPPRLPRPRPRPRMTPRP,0.388
10,RRIRGRPPRLPRPRPRPWLKPRP,-0.24
11,RRIRIRPPRLPRPRPRPGKEPRP,-0.0221
12,RRIRFRPPRLPRPRPRPKWAPRP,-0.075
13,RRIRFRPPRLPRPRPRPDYIPRP,0.209
14,RRIRGRPPRLPRPRPRPVDKPRP,0.319
15,RRIRDRPPRLPRPRPRPLPSPRP,-0.0341
16,RRIRQRPPRLPRPRPRPNQRPRP,0.0738
17,RRIRKRPPRLPRPRPRPMYIPRP,-0.0457
18,RRIRRRPPRLPRPRPRPHMKPRP,-0.654
19,RRIRIRPPRLPRPRPRPIAWPRP,0.0253
20,RRIRSRPPRLPRPRPRPFGRPRP,-0.0701
21,RRIRFRPPRLPRPRPRPEMIPRP,0.169
22,RRIRVRPPRLPRPRPRPERFPRP,-0.023
23,RRIRIRPPRLPRPRPRPAWTPRP,0.304
24,RRIRHRPPRLPRPRPRPRNMPRP,-0.65
25,RRIRQRPPRLPRPRPRPNWVPRP,0.00521

row,Sequence,shrunken log2 fold change
1,RRIRARPPRLPRPRPRPLFDPRP,0.28
2,RRIRLRPPRLPRPRPRPTYAPRP,-0.167
3,RRIRVRPPRLPRPRPRPNYDPRP,0.273
4,RRIRVRPPRLPRPRPRPIALPRP,-0.238
5,RRIRPRPPRLPRPRPRPCNLPRP,-0.593
6,RRIRNRPPRLPRPRPRPFVNPRP,-0.0775
7,RRIRVRPPRLPRPRPRPIHHPRP,-0.723
8,RRIRWRPPRLPRPRPRPRCMPRP,0.204
9,RRIRARPPRLPRPRPRPERKPRP,1.16
10,RRIRVRPPRLPRPRPRPQARPRP,-0.109
11,RRIRFRPPRLPRPRPRPIDHPRP,-0.0746
12,RRIRHRPPRLPRPRPRPNSCPRP,-0.089
13,RRIRQRPPRLPRPRPRPSGMPRP,-0.143
14,RRIRRRPPRLPRPRPRPLKNPRP,0.29
15,RRIRVRPPRLPRPRPRPSNCPRP,-0.225
16,RRIRARPPRLPRPRPRPSTEPRP,0.396
17,RRIRARPPRLPRPRPRPHTAPRP,0.172
18,RRIRRRPPRLPRPRPRPPHFPRP,0.897
19,RRIRLRPPRLPRPRPRPQIAPRP,-0.0971
20,RRIRYRPPRLPRPRPRPTDPPRP,-0.107
21,RRIRFRPPRLPRPRPRPSDNPRP,-0.527
22,RRIRQRPPRLPRPRPRPGHWPRP,0.0453
23,RRIRHRPPRLPRPRPRPFFHPRP,-0.454
24,RRIRSRPPRLPRPRPRPAWHPRP,0.0201
25,RRIRRRPPRLPRPRPRPKRSPRP,0.11

row,Sequence,shrunken log2 fold change
1,RRIRWRPPRLPRPRPRPGWAPRP,0.845
2,RRIRYRPPRLPRPRPRPSFAPRP,-0.332
3,RRIRLRPPRLPRPRPRPRHRPRP,-0.0544
4,RRIRTRPPRLPRPRPRPHQKPRP,-0.127
5,RRIRARPPRLPRPRPRPDYSPRP,0.00409
6,RRIRCRPPRLPRPRPRPPLSPRP,0.312
7,RRIRCRPPRLPRPRPRPNCNPRP,-0.375
8,RRIRLRPPRLPRPRPRPQEYPRP,-0.846
9,RRIRIRPPRLPRPRPRPVGAPRP,0.475
10,RRIRMRPPRLPRPRPRPLCKPRP,0.206
11,RRIRQRPPRLPRPRPRPCDPPRP,-0.0819
12,RRIRHRPPRLPRPRPRPYAHPRP,-0.702
13,RRIRIRPPRLPRPRPRPGWPPRP,0.353
14,RRIRFRPPRLPRPRPRPRVWPRP,0.963
15,RRIRIRPPRLPRPRPRPFRVPRP,-0.369
16,RRIRNRPPRLPRPRPRPPEYPRP,-0.932
17,RRIRVRPPRLPRPRPRPLWWPRP,0.855
18,RRIRNRPPRLPRPRPRPCTLPRP,-0.191
19,RRIRQRPPRLPRPRPRPQWFPRP,0.0435
20,RRIRHRPPRLPRPRPRPDRMPRP,-0.093
21,RRIRGRPPRLPRPRPRPKQWPRP,0.28
22,RRIRHRPPRLPRPRPRPEGYPRP,-0.124
23,RRIRTRPPRLPRPRPRPVIPPRP,-0.133
24,RRIRKRPPRLPRPRPRPGLCPRP,0.168
25,RRIRLRPPRLPRPRPRPEQYPRP,-0.122

row,Sequence,shrunken log2 fold change
1,RRIRYRPPRLPRPRPRPWELPRP,0.0358
2,RRIRQRPPRLPRPRPRPTNQPRP,0.0625
3,RRIRHRPPRLPRPRPRPHMCPRP,-0.0681
4,RRIRRRPPRLPRPRPRPGQRPRP,0.386
5,RRIRNRPPRLPRPRPRPSCGPRP,-0.178
6,RRIRVRPPRLPRPRPRPYSSPRP,-0.644
7,RRIRARPPRLPRPRPRPDFSPRP,0.000254
8,RRIRPRPPRLPRPRPRPYRAPRP,-0.329
9,RRIRFRPPRLPRPRPRPARKPRP,0.294
10,RRIRFRPPRLPRPRPRPIFAPRP,0.161
11,RRIRFRPPRLPRPRPRPTSGPRP,0.219
12,RRIRARPPRLPRPRPRPHIMPRP,-0.277
13,RRIRIRPPRLPRPRPRPYINPRP,-1.08
14,RRIRTRPPRLPRPRPRPFQYPRP,-0.0476
15,RRIRIRPPRLPRPRPRPNGEPRP,-0.0757
16,RRIRYRPPRLPRPRPRPDFSPRP,0.0939
17,RRIRARPPRLPRPRPRPMLAPRP,0.881
18,RRIRFRPPRLPRPRPRPIYWPRP,0.0843
19,RRIRTRPPRLPRPRPRPLLFPRP,-0.181
20,RRIRSRPPRLPRPRPRPEGDPRP,0.203
21,RRIRNRPPRLPRPRPRPPNCPRP,0.00301
22,RRIRFRPPRLPRPRPRPDHEPRP,0.193
23,RRIRYRPPRLPRPRPRPMMAPRP,-0.146
24,RRIRWRPPRLPRPRPRPVLIPRP,-0.0326
25,RRIRRRPPRLPRPRPRPKVPPRP,-0.0226
